Data reported in the DeepSol protein solubility set.

Experiment: soluble on expression in E. coli; label from the status in PepcDB or PDB records

VHEGHRKRLKERFLREGLDSFEQHQVLELLLFFSIPRKDTNELAHTLLNRYGSLSGVFEADPKDLATTPGIGENSAILLSLIPHLSRRYLNDKWRDKPELNSSAKAGQYAISLFAGRNYEVFYVICLDAQNRVNYAELVHEGTINEAPVYPRIIVETALRHKANSVILAHNHPGGTLNPSKADIEATKRIKAALEAISIKVVDHIIVCGGQYVSFAEKGLLSG
soluble on expression in E. coli: soluble

MGSDKIHHHHHHMSITKRIRDNQRNTVLSPVPPFPKSMMLEPSNACNHACRFCGNNRSGIKRVNIPVDFARDILAQAAALGVEEVGLYLRGEPFLHPRLNEIVSYAKASGIGYVYLSSNGGCGTTEAYEAVLEAGLDSFKFSINAGNRQDFKAIHGKDDFEKVVERLRWLIAYREATGLDFKIYVSSTFIDATRGAILAMRDEFAPLVDEYYVHGTCPVPGVKSTDLDHGFSLPCPMVFNRVHVTAEGYLNACCFDFENALAVADLTRVPLNDAWASPLFEDLRRKHLMRNAKGVLCGNCVAGGGVEYEPLVMEFMSRSKRHENP
soluble on expression in E. coli: not soluble

MGSDKIHHHHHHMIAEPFLFRSEGGFIRIPIWGHIPLSAPLKKILAHPSFLRLKGIRQLSFAQQVYPGANHTRFEHSIGVYHLMKMILQRMVSNPLALELQDERLQFDDETCRTLLATCLLHDIGHYPHAHVLEEITPAGDSSAVFAHHESLTGQFLNEEHRDTPSIAAILHDDWQVNPDTVTEIIAGKTAHRLGKLVSGTLDPDKMDYLMRDAHHCNIPYGSIDIERLIESFVPDPERQRLAITEKGIAPLESLLFAKYMMMRNVYWHHTSRTFSTMLRRLLQDVADESALPMETLRELFYFNSDDRVLFELERAIRGLGLPAAELLDAILERRVYKRAMTIRPYHEPSMEIDPVWFAYNTSHRRRKEKELEICAMLAGKTGKRLAGHEVLIDAPPSKDVFDYSDFRELRIWPTKSEHRHLVQPTDSNGYVRFDDFRESVFGSDFILSFEQYTKKFRLLCRHDLVDTLSGLEEAVVEILRR
soluble on expression in E. coli: not soluble

MGSDKIHHHHHHAKKVKGNGDIITKEISVRDYSAIKVGSTAMGYSDSWFSLFSRGGNPSYVFGYTQGESASLRITIDENLYPYINVQVKNEELSISTENGTQLSPTRFKIEGTSKKLEKIKMSGCMDFVLRSALSGDDLEIIATRGSDVKMEQPINVSNCIIEATSGSDIIINDLTTRIIRGRASGGSDLKLTGKAENGEYSASGGSDIKAYDLILNQLECSASGGSDIYTHVTDYIKASASGGSDVHYKGSARSDTSTSGGSDIIKEGN
soluble on expression in E. coli: not soluble

MGFHLRNSLALPPDTPAVKVQSAVQYSELAKLLRRGLKASGATLADEDAKTGFAQVQVLSERWGDLPIAIDSQGRAQEYSLRYAAIFTVTTANGAVLVPQQVIELSRDYVSPPVDATGTATEREILADELRKDMSASILRRIDSVVRARLKHGESLESTPTAPLPPAPVQPTTLPESSVPAALPPAPTSGNLEHHHHHH
soluble on expression in E. coli: not soluble

MGSSHHHHHHSSGLVPRGSHMETADLKSLAKRIYEAYLKNFNMNKVKARVILSGKASNNPPFVIHDMETLCMAEKTLVAKLVANGIQNKEAEVRIFHCCQCTSVETVTELTEFAKAIPGFANLDLNDQVTLLKYGVYEAIFAMLSSVMNKDGMLVAYGNGFITREFLKSLRKPFCDIMEPKFDFAMKFNALELDDSDISLFVAAIICCGDRPGLLNVGHIEKMQEGIVHVLRLHLQSNHPDDIFLFPKLLQKMADLRQLVTEHAQLVQIIKKTESDAALHPLLQEIYRDMY
soluble on expression in E. coli: soluble

VLGVTPDTEVVKPTRTQAERTAAMRTKLLDAAVDSLVELGYARTTTQGIARRAGVSRGAQLHHFPTKESLVVAAVEHLVDKRMEEILAADVDAGRGVDVLADAFSGPLFYAALELWVAARTDPALYEATVPLERKVNDALRRGSAEVFGDRFDADTIELSIELVRGLAVSALFRTPEAEQSLRARLLPVWESKVEKS
soluble on expression in E. coli: not soluble

MKKSRYTETQIVKILKEVEAGRLVKEICREYGISDATYYNWKAKYGGMESSDIKRLKDLEEENRRLKQMYAELSLDHKILKDIVEKKLLEHHHHHH
soluble on expression in E. coli: not soluble

MSLNPNYLDFEQPIADLEAKIQELHTASMGPSINVDTEVRALENKLRLRTAQIFRNLSAWQISQLARHPRRPYTLDYISVVCDEFQELAGDRALADDKAIVGGLARIGHRPVMLIGHQKGRDNKERLMRNFGMPKPEGYRKALRLMKLAERFGLPLLTFIDTMGAWPGIDAEERNQSEAIATNLIEMAELKIPVICTVIGEGGSGGALAIGIGDRTLMLEYSTYSVITPEGCASILWKDAAKASDAAEQLNLTARRLKEFGLIDKVIREPIGGAHRNPQQMANRLKAVLLNELEALDKVPLVTLLNQRHKRLRTYGAYENHEGHHHHHH
soluble on expression in E. coli: not soluble

MSLKAVIFDMDGVLIDSEPLHLDYAFKLFKELNITMTPNEYSKFIGTTSLYMWSNIKDTYNLENTVESLINKERNGFFEFLSSPNTNIKPIDHIPELLGALKENNFKTAVASSSPMRVIKYIINNFELAKQFNELVTGDYVERSKPNPDIFLYAAKKLDVSPEQCVVIEDSHNGVLAAKNAGMKCIGFKNPNSGNQDLSKADTIIHSFNEIDILNEGHHHHHH
soluble on expression in E. coli: soluble

MSSVTAPRLDRATMGRKGGQKAAERWKTDPESDYATAQRETLAAANKRGARQGTGTRGRVLAVYSQTLVDTGEVPTARQIAGEIGITKRMVNIHLKELRDAGLVEQGLRDIWACGRNLGGFPV
soluble on expression in E. coli: not soluble

MNPLERKVKQEAEEDGYSSFDEFPAGAIRIPYEELMAKVRAKKAEAEAAQDLVNENSFDQFVAAPPAPPVQKPAVEPSPSCSPETVAVQKFVTEFMQAAGGSRELRIIKDSQETKIVWKTSPAKPKAPPVEDDPTDPTDSQVSTVSSIIPVSSPRGKRRIVVSSDKDSDGDETPTEDNVNNDDQDVTPKKNRKPPVEVVTPSPAKRLRGLNLRSAHSSSDSESDFQDTQCEDSQDSDYFPDTQEQRDRPADFRIPKNAAYDPLDLSYN
soluble on expression in E. coli: not soluble

MGSDKIHHHHHHMISQHVRKKTREYPNRFFDSSVWNDLALRRGDIVIASYAKAGTTWLQQIVAQLIFGGEPNIDVSAISPWVDGVYPDKATKLALLEAQSQRRFMKTHLPADALVTSPLARYLYIGRDGRDIALSLYDHQCAVSQDAQARVHANGGKSGKLRVVSPPGLPRDAYVAHWLEYDGAPFWPLWENVRSWWERREDANVLLLHYADLLDDLPGQIRLIAAFLGITVAQDRWDAIVAHCRFDYMRQHAARYVPQGTGLWREDGKAFFNQGRIGRWREVLPAELNTAYSRRAEAELGRDAAQWLAHGQTQTS
soluble on expression in E. coli: not soluble

MDAIILQENIEGLLSLVRMLLPDGGSAGCVYLDDLSALQRSIHEKINDLYSQRGETPEQDATLCLAILQGYNVSMYANPEDEERKQAVLTRSLSLLDVLPPSLLKQQLSAVCYGMQELCEIN
soluble on expression in E. coli: not soluble

MIDKSGYRANVAIVLLNKQNRVFWGQRRNRTSWQFPQGGVATGETPLQAMYRELHEEIGLRPQDVEVIASTRDWYKYDIPDSLVRTKEPICIGQKQKWFLLKLKSPESYIDLDANDSPEFDNWRWVSYWYPINHVVYFKQEVYRKALTYFKEYIA
soluble on expression in E. coli: not soluble

MKKVKLIGTLDYGKYRYPKNHPLKIPRVSLLLRFKDAMNLIDEKELIKSRPATKEELLLFHTEDYINTLMEAERSQSVPKGAREKYNIGGYENPVSYAMFTGSSLATGSTVQAIEEFLKGNVAFNPAGGMHHAFKSRANGFCYINNPAVGIEYLRKKGFKRILYIDLDAHHCDGVQEAFYDTDQVFVLSLHQSPEYAFPFEKGFLEEIGEGKGKGYNLNIPLPKGLNDNEFLFALEKSLEIVKEVFEPEVYLLQLGTDPLLEDYLSKFNLSNVAFLKAFNIVREVFGEGVYLGGGGYHPYALARAWTLIWCELSGREVPEKLNNKAKELLKSIDFEEFDDEVDRSYMLETLKDPWRGGEVRKEVKDTLEKAKASS
soluble on expression in E. coli: soluble

MNNSAEYFIKSLNMTAHPEGGYFKESFISPSKLAPNTLHINEERLLWTSIYFLLRTGEVSNFHRLKSDEMWYFHAGESLTIYMISPNGELIEKQLGLNIEKGETPQVLVPKDYIFGSAMNNEGFSLVGCMVAPGFDFKDFELFEREDLLEKYPKYKEVIEKLTRLEHHHHHH
soluble on expression in E. coli: not soluble

MGKGVRDPGSDGSLRRKELAMIKVEDMMTRHPHTLLRTHTLNDAKHLMEALDIRHVPIVDANKKLLGIVSQRDLLAAQESSLQRSAQGDSLAFETPLFEVMHTDVTSVAPQAGLKESAIYMQKHKIGCLPVVAKDVLVGIITDSDFVTIAINLLELQEESEPDELDEEQ
soluble on expression in E. coli: not soluble

MGSDKIHHHHHHMTENQTAHVRALILDATPLITQSYTHYQNYAQSFYTTPTVFQEIKDAQARKNLEIWQSLGTLKLVHPSENSIAKVSTFAKLTGDYSVLSANDLHILALTYELEIKLNNGDWRLRKKPGDALDASKADVGTDGKQKLTEDNKKEEDSESVPKKKNKRRGGKKQKAKREAREAREAENANLELESKAEEHVEEAGSKEQICNDENIKESSDLNEVFEDADDDGDWITPENLTEAIIKDSGEDTTGSLGVEASEEDRHVALNRPENQVALATGDFAVQNVALQMNLNLMNFMSGLKIKRIRNYMLRCHACFKIFPLPKDGKPKHFCASCGGQGTLLRCAVSVDSRTGNVTPHLKSNFQWNNRGNRYSVASPLSKNSQKRYGKKGHVHSKPQENVILREDQKEYEKVIKQEEWTRRHNEKILNNWIGGGSADNYISPFAITGLKQHNVRIGKGRYVNSSKRRS
soluble on expression in E. coli: not soluble

MKISVLVPTLGTREKEIRRLLETLEKQSYKDFEIIFVTQDNHEIVKDIIYKYSNLDIKQIEMSVKGLSRARNRGLEQASGEIVVLSDDDCWYPANAFEIVVNAFKKRQCAKIVLSQIFDPEKNIPYKNYTSDEEYVRNKLQLMSKSSIEVAFKKDLVMNKKFDERLGLGSEFVCGEEVDFLLSNYEKNAIFYIPEVTVYHKKKENGSSNKQIIAKGAIYGKNFNIFICVLVLLRDLMLKKENNFKYFFEGYNEYFKRTN
soluble on expression in E. coli: not soluble

MSNVVVCALYKFVSLPHFESLREPLLSMMEQAEIKGTLLLASEGINGTVAGNQAAIDALLIWLNQQNGLENITYKLSFDDEMPFYRTKVKLKKEIVTMGVEGIDPLKVVGTYVKPKDWNALISDPEVVLVDTRNDYEVQIGTFKNAINPVTETFREFPEYVKQNLDPAKHKKVAMFCTGGIRCEKSTAYLKEQGFEEVYHLEGGILKYLEEVNKAESLWEGECFVFDNRVAVDHDLKKGQYDQCNACRMPITEAEKLTPDYVQGVSCPHCIDKISEEQRKRFVERERQVNLAKSRNEAHIGSDVNHVIEARRQKKEALRKQSAEKNKAKQANALEHHHHHH
soluble on expression in E. coli: soluble

MIDVKSIILIVLDGLGDRPGEILGYRTPLQAAYHPNMNRMASLGMTGLMHPISPGIRSGSDTSHMSLLGYDPRVYYQGRGPFEALGLHMDMKPGDLAFRANFATNRDGKIIDRRAGRINAGNDQLASAISIDIGNYKFRVKSGVEHRAALVVSGPNLSDKISDSDPHSEGKPPEPIRPLDPSADSTAKIMNEYLKRIREILRDHPVNVEREKNGQIPGNELLIRSAGKVPDIPSFQEKNGITGACVVGSPWLKGLCRLLGMAVIDVPGAAGTINSNYTGKIKTAIDASKRYDFVLVNIKATDVAGHDGDYELKRRVIEDIDIAMEPLLGQSDRIVVAITGDHSTPCSVKDHSGDPVPIVFYTDGIYSDDVKLFDEVSAMKGALRITTQDVLNILMEMAGRAEKFGSLEHHHHHH
soluble on expression in E. coli: soluble
